In article PMC3687086 (Nature, 2013):

T1: Rpt1 (subunit of the base) (yeast, UniProt P33299 1-467)
T1 sequence: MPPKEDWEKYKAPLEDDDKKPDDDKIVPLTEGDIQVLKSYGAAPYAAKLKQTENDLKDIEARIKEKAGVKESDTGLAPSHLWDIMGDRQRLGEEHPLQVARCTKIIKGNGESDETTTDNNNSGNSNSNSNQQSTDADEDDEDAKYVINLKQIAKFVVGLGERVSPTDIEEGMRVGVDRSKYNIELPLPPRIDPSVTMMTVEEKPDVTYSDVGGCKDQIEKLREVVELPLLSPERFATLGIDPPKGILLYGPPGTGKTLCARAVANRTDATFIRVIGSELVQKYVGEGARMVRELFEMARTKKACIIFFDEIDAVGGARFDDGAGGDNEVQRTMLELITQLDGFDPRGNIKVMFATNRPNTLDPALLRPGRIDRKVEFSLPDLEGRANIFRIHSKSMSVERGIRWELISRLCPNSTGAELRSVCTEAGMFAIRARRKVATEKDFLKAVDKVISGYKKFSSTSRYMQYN

B1: CP subunit α3 (natural protein)
chain: MGSRRYDSRTTIFSPEGRLYQVEYALESISHAGTAIGIMASDGIVLAAERKVTSTLLEQDTSTEKLYKLNDKIAVAVAGLTADAEILINTARIHAQNYLKTYNEDIPVEILVRRLSDIKQGYTQHGGLRPFGVSFIYAGYDDRYGYQLYTSNPSGNYTGWKAISVGANTSAAQTLLQMDYKDDMKVDDAIELALKTLSKTTDSSALTYDRLEFATIRKGANDGEVYQKIFKPQEIKDILVKTGITKKDEDEEADEDMK
B2: CP subunit α4 (natural protein)
chain: MSGYDRALSIFSPDGHIFQVEYALEAVKRGTCAVGVKGKNCVVLGCERRSTLKLQDTRITPSKVSKIDSHVVLSFSGLNADSRILIEKARVEAQSHRLTLEDPVTVEYLTRYVAGVQQRYTQSGGVRPFGVSTLIAGFDPRDDEPKLYQTEPSGIYSSWSAQTIGRNSKTVREFLEKNYDRKEPPATVEECVKLTVRSLLEVVQTGAKNIEITVVKPDSDIVALSSEEINQYVTQIEQEKQEQQEQDKKKKSNH

Legend:
[1] = molecular target: Rpt2 (subunit of the base) (yeast, UniProt P40327 1-437); assay: cryo-EM structure
[2] = molecular target: T1, Rpt1 (subunit of the base); assay: cryo-EM structure

Sequence of Rpt2 (subunit of the base) (P40327 whole entry): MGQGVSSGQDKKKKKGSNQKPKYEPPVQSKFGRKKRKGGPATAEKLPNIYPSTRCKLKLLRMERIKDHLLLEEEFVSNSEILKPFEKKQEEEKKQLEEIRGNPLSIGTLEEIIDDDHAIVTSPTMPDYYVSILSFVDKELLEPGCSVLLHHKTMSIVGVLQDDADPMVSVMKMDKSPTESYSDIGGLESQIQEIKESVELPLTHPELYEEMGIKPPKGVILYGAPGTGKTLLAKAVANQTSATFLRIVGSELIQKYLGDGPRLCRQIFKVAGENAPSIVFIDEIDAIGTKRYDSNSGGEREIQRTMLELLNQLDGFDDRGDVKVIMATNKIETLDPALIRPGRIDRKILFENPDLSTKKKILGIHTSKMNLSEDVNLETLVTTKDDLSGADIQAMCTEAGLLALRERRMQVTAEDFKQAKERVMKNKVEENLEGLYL

Binder | binding result [1] | binding result [2]
B1 | binds | –
B2 | binds | binds
